Numbering of substitutions follows the chain as printed. Numbers in names are those of the source. Read-outs that look alike come from different tables or passages of the source.
B1: PS393: ClpS protein, SEQ ID NO: 21 (protein)
chain: MSDEDGEDGDENAVGIATRTRTRTKKPTPYRVLLLNDDYTPMEFVVLVLQRFFRMSIEDATRVMLQVHQKGVGVCGVFTYEVAETKVSQVIDFARQNQHPLQCTLEKA
B2: Escherichia coli ClpS M40A: ClpS protein, SEQ ID NO: 109 (protein, listed as Escherichia coli)
chain: MGKTNDWLDFDQLAEEKVRDALKPPSMYKVILVNDDYTPAEFVIDVLQKFFSYDVERATQLMLAVHYQGKAICGVFTAEVAETKVAMVNKYARENEHPLLCTLEKA
B3: PS390: ClpS protein, SEQ ID NO: 18 (protein)
chain: MLSIAAVTEAPSKGVQTADPKTVRKPYPNYKVIVLNDDFNTFQHVSSCLLKYIPGMSEARAWELTNQVHFEGLAVVWVGPQEQAELYYAQLKNAGLTMAPPEPA
B4: PS368: ClpS protein, SEQ ID NO: 1 (protein)
chain: MASAPSTTLDKSTQVVKKTYPNYKVIVLNDDLNTFDHVANCLIKYIPDMTTDRAWELTNQVHYQGQAIVWTGPQEQAELYHQQLRREGLTMAPLEAA
B5: PS506: UBR-box domain homolog, SEQ ID NO: 134 (protein, listed as Capitella teleta)
chain: MLCGKVFKMGELTYSCRDCGTDPTCVLCMDCFQHSAHKKHRYKMAASGGGGYCDCGDREAWKAEPFCDVHKR
B6: PS503: UBR-box domain homolog, SEQ ID NO: 131 (protein, listed as Hydra vulgaris)
chain: MFCGRLFKVGDPTYTCKDCAADPTCVFCHDCFHQSVHTKHKYKLFASQGRGGYCDCGDKEAWTNDPACNKHKE
B7: PS508: UBR-box domain homolog, SEQ ID NO: 136 (protein)
chain: MLCGRVFKEGETVYSCRDCAIDPTCVLCIECFQKSVHKSHRYKMHASAGGGFCDCGDLEAWKTGPCCSQHDP
modifications: Anabarilius graham
B8: PS512: UBR-box domain homolog, SEQ ID NO: 140 (protein, listed as Mastacembelus armatus)
chain: B7 chain with I29M, E30D, K34D, L58V, T63I, C66Y, Q69K
B9: PS502: UBR-box domain homolog, SEQ ID NO: 130 (protein, listed as Helobdella robusta)
chain: MVCLKVFKLGEPTYSCRSVTCGMDPTCVLCVDCFQNSSHKLHKYKMSTSGGGGYCDCGDLEAWKADPLCDLHKL
B10: PS507: UBR-box domain homolog, SEQ ID NO: 135 (protein, listed as Sparassis crispa)
chain: MPCGHIFKKGESCFRCKDCALDDSCVLCSKCFEATDHANHNVSFFIAQQSGGCCDCGDIEAWLVPIDCPFHPV
B11: PS501: UBR-box domain homolog, SEQ ID NO: 129 (protein, listed as Amanita thiersii)
chain: MICGQIIGKGESCFRCRDCGLDESCVMCSQCFHATDHINHNVSFFVSQQPGGCCDCGDEEAWKKPMNCPYHPP
B12: PS504: UBR-box domain homolog, SEQ ID NO: 132 (protein, listed as Galleria mellonella)
chain: MLCGKVFKQGEPAYSCRECGMDNTCVLCVECFKVSPHRHHKYKMGQSGGGGCCDCGDTEAWKRDPFCERHAK
B13: PS514: UBR-box domain homolog, SEQ ID NO: 142 (protein, listed as Tribolium castaneum)
chain: MVCGRVFKLGEPTYSCRECGMDNTCVLCVNCFKNSEHRFHKYKMGTSQGGGCCDCGDVEAWKKAPFCDVHIA
B14: PS382: ClpS protein, SEQ ID NO: 15 (protein)
chain: MSDSPVIKEIKKDNIKEADEHEKKEREKETSAWKVILYNDDIHNFTYVTDVIVKVVGQISKAKAHTITVEAHSTGQALILSTWKSKAEKYCQELQQNGLTVSIIHESQLKDKQKK
B15: PS389: ClpS protein, SEQ ID NO: 17 (protein)
chain: MLNSAAFKAASASPVIAPERSGQVTQKPYPTYKVIVLNDDFNTFQHVHDCLVKYIPGMTSDRAWQLTHQVHNDGQAIVWVGPQEQAELYHQQLSRAGLTMAPIEAA
B16: PS511: UBR-box domain homolog, SEQ ID NO: 139 (protein, listed as Habropoda laboriosa)
chain: MICGKVFKMGEATYSCKECGVDPTCVLCADCFKQSAHRHHKYRMGTSSGGGFCDCGDIEAWKKEPFCNTHLA
B17: PS395: ClpS protein, SEQ ID NO: 23 (protein)
chain: MTVSQSKTQGAPAAQSATELEYEGLWRVVVLNDPVNLMSYVVLVFKKVFGFDETTARKHMLEVHEQGRSVVWSGMREKAEAYAFTLQQWHLTTVLEQDEVR
B18: PS513: UBR-box domain homolog, SEQ ID NO: 141 (protein, listed as Pyrenophora seminiperda)
chain: MPCGHIFKNGEATYRCKTCTADDTCVLCARCFDASDHEGHQVFVSVSPGNSGCCDCGDDEAWVRPVHCNIHSA
B19: PS392: ClpS protein, SEQ ID NO: 20 (protein)
chain: MSVEIIEKRSTVRKLAPRYRVLLHNDDFNPMEYVVQTLMATVPSLTQPQAVNVMMEAHTNGMGLVIVCALEHAEFYAETLNNHGLGSSIEPDD
B20: PS388: ClpS protein, SEQ ID NO: 16 (protein)
chain: MVTTLSADVYGMATAPTVAPERSNQVVRKTYPNYKVIVLNDDFNTFQHVAECLMKYIPGMSSDRAWDLTNQVHYEGQAIVWVGPQEPAELYHQQLRRAGLTMAPLEAA
B21: PS391: ClpS protein, SEQ ID NO: 19 (protein)
chain: MGQTVEKPRVEGPGTGLGGSWRVIVRNDDHNTFDHVARTLARFIPGVSLERGHEIAKVIHTTGRAVVYTGHKEAAEHYWQQLKGAGLTMAPLEQG
B22: Plasmodium falciparum ClpS: ClpS protein, SEQ ID NO: 110 (protein, listed as Plasmodium falciparum)
chain: MFKDLKPFFLCIILLLLLIYKCTHSYNIKNKNCPLNFMNSCVRINNVNKNTNISFPKELQKRPSLVYSQKNFNLEKIKKLRNVIKEIKKDNIKEADEHEKKEREKETSAWKVILYNDDIHNFTYVTDVIVKVVGQISKAKAHTITVEAHSTGQALILSTWKSKAEKYCQELQQNGLTVSIIHESQLKDKQKK
B23: Saccharomyces cerevisiae GID10: SEQ ID NO: 125 (protein, listed as Saccharomyces cerevisiae)
chain: MTSLNIMGRKFILERAKRNDNIEEIYTSAYVSLPSSTDTRLPHFKAKEEDCDVYEEGTNLVGKNAKYTYRSLGRHLDFLRPGLRFGGSQSSKYTYYTVEVKIDTVNLPLYKDSRSLDPHVTGTFTIKNLTPVLDKVVTLFEGYVINYNQFPLCSLHWPAEETLDPYMAQRESDCSHWKRFGHFGSDNWSLTERNFGQYNHESAEFMNQRYIYLKWKERFLLDDEEQENQMLDDNHHLEGASFEGFYYVCLDQLTGSVEGYYYHPACELFQKLELVPTNCDALNTYSSGFEIA
B24: PS510: UBR-box domain homolog, SEQ ID NO: 138 (protein, listed as Camponotus floridanus)
chain: MICGRMFKMGEPTYSCRQCGMDSTCVLCVDCFKQSAHRNHKYKMGTSSGGGCCDCGDTEAWKNEPFCKIHLA
B25: PS515: UBR-box domain homolog, SEQ ID NO: 143 (protein, listed as Wasmannia auropunctata)
chain: B24 chain with R5K, M9I, Q18E, N63K, I69T, L71V, A72V
B26: PS509: UBR-box domain homolog, SEQ ID NO: 137 (protein)
chain: MICGHGFKTGEPTYSCRDCATDPTCVLCISCFQKSPHREHRYKMSASGGGGYCDCGDPEAWKIEPFCEQHKP
modifications: Lottia gigantean
B27: PS380: ClpS protein, SEQ ID NO: 13 (protein)
chain: MGDIYGESNPEEVSCIDSLSEEGNELILFNDNIHTFEYVIDCLVAICSLSYEQASNCAYIVDRKGLCTVKHGSYDELLIMYHALVEKDLKVEIR
B28: PS378: ClpS protein, SEQ ID NO: 11 (protein)
chain: MXPQEVEEVSFLESKEHEIVLYNDDVNTFDHVIECLVKICNHNYLQAEQCAYIVHHSGKCGVKTGSLEELIPKCNALLEEGLSAEVI
modifications: not fully specified; X: residue not identified in the source
B29: PS394: ClpS protein, SEQ ID NO: 22 (protein)
chain: MAERRDTGDDEGTGLGIATKTRSKTKKPTPYRVLMLNDDYTPMEFVVLCLQRFFRMNMEEATRVMLHVHQKGVGVCGVFSYEVAETKVGQVIDFARANQHPLQCTLEKA

Assays:
[1] = test system: amino acid at a terminal position of a polypeptide; test: Amino acid binding preference of recognition proteins (Tables 1 and 2); details: Table 1, ClpS proteins; amino acid identity at a terminal position of a polypeptide; inferred from literature and/or demonstrated by the inventors
Source text: It should be appreciated that these sequences and other examples described herein are meant to be non-limiting, and recognition molecules in accordance with the application can include any homologs, variants thereof, or fragments thereof minimally containing domains or subdomains responsible for peptide recognition.

[2] = test system: amino acid at a terminal position of a polypeptide; details: Table 2; amino acid identity at a terminal position (phosphotyrosine also internal); inferred from literature and/or demonstrated by the inventors; cited from earlier work

| Molecule | Binding Pref. [1] | Binding Pref. [2] |
| --- | --- | --- |
| B1 | F, Y, W, L |  |
| B2 | F, W, Y, L |  |
| B3 | F, Y, L |  |
| B4 | F, Y, W, L |  |
| B5 |  | K, R, H |
| B6 |  | K, R, H |
| B7 |  | K, R, H |
| B8 |  | K, R, H |
| B9 |  | K, R, H |
| B10 |  | K, R, H |
| B11 |  | K, R, H |
| B12 |  | K, R, H |
| B13 |  | K, R, H |
| B14 | F, Y, W, L |  |
| B15 | F, Y, L |  |
| B16 |  | K, R, H |
| B17 | F, Y, W, L |  |
| B18 |  | K, R, H |
| B19 | F, Y, W |  |
| B20 | F, Y, L |  |
| B21 | F, Y, W, L |  |
| B22 | F, W, Y, L |  |
| B23 |  | P, M, V |
| B24 |  | K, R, H |
| B25 |  | K, R, H |
| B26 |  | K, R, H |
| B27 | F, W |  |
| B28 | F, Y, W, L |  |
| B29 | F, Y, W, L |  |
